The results in this text go back to paper PMC6572864, “Recombinant production, purification, crystallization, and structure analysis of human transforming growth factor β2 in a new conformation” (Scientific Reports, 2019).

This data set deals with the molecule itself. The data set can be described thus: crystal structure; sitting-drop vapor diffusion, 20 °C, 20% isopropanol, 0.2 M calcium chloride, 0.1 M sodium acetate pH 4.6; space group P4(1)2(1)2, 2.0 Å; half a disulfide-linked dimer per asymmetric unit.

Usually stoichiometry N stands for a count of units in the complex or per binding partner.

B1: human transforming growth factor β2, mature growth-factor moiety (GF) (ligand, UniProt P61812 303-414, looked up)
chain: ALDAAYCFRNVQDNCCLRPLYIDFKRDLGWKWIHEPKGYNANFCAGACPYLWSSDTQHSRVLSLYNTINPEASASPCCVSQDLEPLTILYYIGKTPKIEQLSNMIVKSCKCS
notes: human TGFβ2 growth-factor moiety, residues A303-S414 of the precursor (UniProt P61812), 112 residues, released by cleavage at R302-A303; Disulfide-linked homodimer (intermolecular disulfide C379-C379); The crystals came from octahistidine-tagged pro-TGFβ2 mixed with methylamine-induced hα2M; they also grew from pro-TGFβ2 alone; also called mature TGFβ2; TGFβ2 GF; source: purified together with …
Take B1: the “stoichiometry N” value turned out to be 2.
